In patent US20150233949A1, “DETECTION AND MODULATION OF CYTOCHROME C ACETYLATION” (President and Fellows of Harvard College, priority 2008, published 2015):

Tested on: cytochrome c
Test: Tandem mass spectrometry of cytochrome c acetylation in transfected SH-SY5Y cells
Assay type: cell-based, mouse
Details: hSIRT3 cotransfected with cytochrome c in SH-SY5Y cells; FIG. 3
Method: SH-SY5Y cells were cultured in Dulbecco's Modified Eagle's Medium (DMEM) supplemented with 10% Fetal Calf Serum (FCS). SH-SY5Y cells were transfected with Lipofectamine 2000 (Invitrogen, Carlsbad, Calif.). Granule neuron cultures were prepared from cerebella of postnatal day 5 mouse pups. Neurons were placed on polyornithine-coated 96-well plates and grown in Basal Medium Eagle (BME) (Sigma, St. Louis, Mo.) supplemented with 10% calf serum (Hyclone Laboratories, Logan, Utah), 25 mM KCl, 2 mM glutamine, penicillin, and streptomycin. One day after cultures were prepared they were treated with 10 μM of the antimitotic agent cytosine-D-arabinofuranoside (Sigma, St. Louis, Mo.) to prevent the proliferation of non-neuronal cells.
A large-scale Flag-immunoprecipitation followed by elution with 3× Flag peptide was performed on cell extracts from 10×15 cm-plates of SH-SY5Y cells transfected with pcDNA-mouse cytochrome c-Flag+/−pcDNA-hSIRT3-HA. Purified proteins were separated by SDS-PAGE, and the band corresponding to cytochrome c was excised and analyzed by MS/MS.

B1: hSIRT3: human SIRT3 deacetylase expressed from transfected pcDNA-hSIRT3-HA vector (protein)
chain: MAFWGWRAAAALRLWGRVVERVEAGGGVGPFQACGCRLVLGGRDDVSAGLRGSHGARGEPLDPARPLQRPPRPEVPRAFRRQPRAAAPSFFFSSIKGGRRSISFSVGASSVVGSGGSSDKGKLSLQDVAELIRARACQRVVVMVGAGISTPSGIPDFRSPGSGLYSNLQQYDLPYPEAIFELPFFFHNPKPFFTLAKELYPGNYKPNVTHYFLRLLHDKGLLLRLYTQNIDGLERVSGIPASKLVEAHGTFASATCTVCQRPFPGEDIRADVMADRVPRCPVCTGVVKPDIVFFGEPLPQRFLLHVVDFPMADLLLILGTSLEVEPFASLTEAVRSSVPRLLINRDLVGPLAWHPRSRDVAQLGDVVHGVESLVELLGWTEEMRDLVQRETGKLDGPDK
modifications: left off: small tags and cut ends
notes: human SIRT3 deacetylase expressed from transfected pcDNA-hSIRT3-HA vector
- acetylation of residues K40 and K74 of cytochrome c: no longer detected
